The target of one assay is T1, 4H40-bH.
T1 chain: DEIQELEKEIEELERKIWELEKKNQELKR
Description: two-hybrid library CCNG1.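 Note: natural log of median RNA to DNA barcode read ratio; higher means stronger binding.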

Another assay addresses T2, 4H477-bH.
T2 chain: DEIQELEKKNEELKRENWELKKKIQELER
Description: two-hybrid library CCNG1.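 Note: natural log of median RNA to DNA barcode read ratio; higher means stronger binding.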

The next assay has as its target T3, 4H741-bH.
T3 chain: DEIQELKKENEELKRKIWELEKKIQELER
Description: two-hybrid library CCNG1.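 Note: natural log of median RNA to DNA barcode read ratio; higher means stronger binding.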

For the next assay, the target named is T4, 4H348-bH.
T4 chain: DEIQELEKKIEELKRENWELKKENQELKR
Description: two-hybrid library CCNG1.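 Note: natural log of median RNA to DNA barcode read ratio; higher means stronger binding.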

For the next assay, the target named is T5, 4H492-bH.
T5 chain: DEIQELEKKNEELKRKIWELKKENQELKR
Description: two-hybrid library CCNG1.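 Note: natural log of median RNA to DNA barcode read ratio; higher means stronger binding.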

The target in assay [1] is T6, O9.
T6 chain: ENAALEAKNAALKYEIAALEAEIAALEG
Description: two-hybrid library CC0.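 Note: natural log of median RNA to DNA barcode read ratio; higher means stronger binding.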 Particulars: mean of both orientations.

The target in another assay is T7, P8mS.
T7 chain: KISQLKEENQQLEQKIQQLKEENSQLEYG
Description: two-hybrid library CC1. As to conditions: mean of both orientations.

Another assay concerns the target T8, P9.
T8 chain: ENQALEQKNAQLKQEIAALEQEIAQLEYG
Description: two-hybrid library CC1. As to conditions: mean of both orientations.

Another assay concerns the target T9, P8.
T9 chain: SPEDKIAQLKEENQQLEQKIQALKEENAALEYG
Description: two-hybrid library CC1. As to conditions: mean of both orientations.

Another assay has as its target T10, P7.
T10 chain: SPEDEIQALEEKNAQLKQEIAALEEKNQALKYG
Description: two-hybrid library CC1.

Another assay concerns the target T11, P7mS.
T11 chain: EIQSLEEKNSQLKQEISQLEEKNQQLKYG
Description: two-hybrid library CC1. Particulars: mean of both orientations.

The next assay addresses T12, 4H319-bH.
T12 chain: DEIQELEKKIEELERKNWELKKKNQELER
Description: two-hybrid library CCNG1.

The next assay deals with T13, 4H3277-bH.
T13 chain: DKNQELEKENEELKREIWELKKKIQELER
Description: two-hybrid library CCNG1.

The target in another assay is T14, 4H932-bA.
T14 chain: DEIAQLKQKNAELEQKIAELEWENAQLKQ
Description: two-hybrid library CCNG1.

For a further assay, the target named is T15, 4H796-bA.
T15 chain: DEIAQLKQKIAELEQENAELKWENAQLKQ
Description: two-hybrid library CCNG1.

The target of the next assay is T16, 4H56-bA.
T16 chain: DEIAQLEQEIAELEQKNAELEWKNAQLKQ
Description: two-hybrid library CCNG1.

In another assay the target is T17, 4H3364-bA.
T17 chain: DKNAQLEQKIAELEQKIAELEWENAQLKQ
Description: two-hybrid library CCNG1.

A further assay deals with T18, 4H730-bA.
T18 chain: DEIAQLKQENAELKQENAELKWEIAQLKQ
Description: two-hybrid library CCNG1.

For the next assay, the target named is T19, 4H3381-bA.
T19 chain: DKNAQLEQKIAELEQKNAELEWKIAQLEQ
Description: two-hybrid library CCNG1.

For another assay, the target named is T20, 4H949-bA.
T20 chain: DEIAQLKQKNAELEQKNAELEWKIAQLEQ
Description: two-hybrid library CCNG1.

The next assay has as its target T21, 4H3297-bA.
T21 chain: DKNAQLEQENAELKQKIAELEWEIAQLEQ
Description: two-hybrid library CCNG1.

Another assay addresses T22, 4H349-bA.
T22 chain: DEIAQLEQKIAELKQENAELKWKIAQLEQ
Description: two-hybrid library CCNG1.

For another assay, the target named is T23, APC7099-AA.
T23 chain: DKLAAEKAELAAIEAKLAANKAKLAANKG
Description: two-hybrid library CCmax. As to conditions: mean of both orientations.

Another assay concerns the target T24, APC4436-AA.
T24 chain: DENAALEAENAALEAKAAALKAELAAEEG
Description: two-hybrid library CCmax. As to conditions: mean of both orientations.

The target of a further assay is T25, APC6108-AA.
T25 chain: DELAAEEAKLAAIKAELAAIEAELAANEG
Description: two-hybrid library CCmax. Particulars: mean of both orientations.

In another assay the target is T26, APC4264-AA.
T26 chain: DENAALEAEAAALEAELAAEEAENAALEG
Description: two-hybrid library CCmax. Particulars: mean of both orientations.

Another assay deals with T27, APC9096-AA.
T27 chain: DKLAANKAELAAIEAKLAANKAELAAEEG
Description: two-hybrid library CCmax. As to conditions: mean of both orientations.

A further assay addresses T28, APC8910-AA.
T28 chain: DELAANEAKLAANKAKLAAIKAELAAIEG
Description: two-hybrid library CCmax. As to conditions: mean of both orientations.

In another assay the target is T29, APC9319-AA.
T29 chain: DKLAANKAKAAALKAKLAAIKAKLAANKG
Description: two-hybrid library CCmax. As to conditions: mean of both orientations.

The target of a further assay is T30, APC5383-AA.
T30 chain: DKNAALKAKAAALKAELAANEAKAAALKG
Description: two-hybrid library CCmax. Particulars: mean of both orientations.

The next assay concerns the target T31, APC4011-AA.
T31 chain: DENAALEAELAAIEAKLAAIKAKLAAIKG
Description: two-hybrid library CCmax. As to conditions: mean of both orientations.

The next assay has as its target T32, APC3645-AA.
T32 chain: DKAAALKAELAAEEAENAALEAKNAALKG
Description: two-hybrid library CCmax.

For the next assay, the target named is T33, APC8191-AA.
T33 chain: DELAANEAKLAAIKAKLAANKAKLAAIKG
Description: two-hybrid library CCmax. Particulars: mean of both orientations.

The next assay addresses T34, 4H918-bH.
T34 chain: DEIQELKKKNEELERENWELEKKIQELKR
Description: two-hybrid library CCNG1.

The next assay addresses T35, 4H568-bH.
T35 chain: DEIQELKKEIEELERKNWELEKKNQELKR
Description: two-hybrid library CCNG1.

Another assay deals with T36, 4H754-bH.
T36 chain: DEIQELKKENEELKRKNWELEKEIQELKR
Description: two-hybrid library CCNG1.

Another assay addresses T37, 4H3855-bH.
T37 chain: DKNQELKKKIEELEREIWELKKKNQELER
Description: two-hybrid library CCNG1.

The target in the next assay is T38, 4H72-bH.
T38 chain: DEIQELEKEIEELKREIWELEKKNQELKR
Description: two-hybrid library CCNG1.

A further assay concerns the target T39, 4H454-bH.
T39 chain: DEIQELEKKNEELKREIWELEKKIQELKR
Description: two-hybrid library CCNG1.

For another assay, the target named is T40, 4H3782-bH.
T40 chain: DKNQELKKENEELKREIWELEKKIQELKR
Description: two-hybrid library CCNG1.

Another assay deals with T41, 4H953-bH.
T41 chain: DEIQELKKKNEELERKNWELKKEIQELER
Description: two-hybrid library CCNG1.

The next assay deals with T42, 4H717-bH.
T42 chain: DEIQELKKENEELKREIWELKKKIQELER
Description: two-hybrid library CCNG1.

For a further assay, the target named is T43, 4H687-bH.
T43 chain: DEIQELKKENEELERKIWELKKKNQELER
Description: two-hybrid library CCNG1.

For the next assay, the target named is T44, 4H3926-bA.
T44 chain: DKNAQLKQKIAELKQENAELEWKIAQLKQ
Description: two-hybrid library CCNG1.

In the next assay the target is T45, 4H338-bH.
T45 chain: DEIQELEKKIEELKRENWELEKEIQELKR
Description: two-hybrid library CCNG1.

The target of a further assay is T46, 4H607-bH.
T46 chain: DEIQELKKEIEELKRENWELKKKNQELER
Description: two-hybrid library CCNG1.

A further assay has as its target T47, 4H797-bH.
T47 chain: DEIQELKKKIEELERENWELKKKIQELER
Description: two-hybrid library CCNG1.

In the next assay the target is T48, 4H883-bH.
T48 chain: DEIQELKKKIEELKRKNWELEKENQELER
Description: two-hybrid library CCNG1.

Another assay addresses T49, 4H967-bH.
T49 chain: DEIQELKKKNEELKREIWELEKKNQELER
Description: two-hybrid library CCNG1.

The next assay deals with T50, 4H4001-bH.
T50 chain: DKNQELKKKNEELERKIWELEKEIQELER
Description: two-hybrid library CCNG1.

Another assay deals with T51, 4H3427-bH.
T51 chain: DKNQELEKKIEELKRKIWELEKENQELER
Description: two-hybrid library CCNG1.

The next assay deals with T52, 4H908-bH.
T52 chain: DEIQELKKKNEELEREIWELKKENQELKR
Description: two-hybrid library CCNG1.

For the next assay, the target named is T53, 4H40-bN.
T53 chain: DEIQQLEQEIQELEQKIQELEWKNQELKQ
Description: two-hybrid library CCNG1.

A further assay addresses T54, 4H477-bN.
T54 chain: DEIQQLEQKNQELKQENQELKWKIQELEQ
Description: two-hybrid library CCNG1.

A further assay concerns the target T55, 4H741-bN.
T55 chain: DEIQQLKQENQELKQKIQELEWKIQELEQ
Description: two-hybrid library CCNG1.

In a further assay the target is T56, 4H492-bN.
T56 chain: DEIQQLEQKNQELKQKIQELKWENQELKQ
Description: two-hybrid library CCNG1.

The next assay deals with T57, 4H348-bN.
T57 chain: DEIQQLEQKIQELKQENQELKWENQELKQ
Description: two-hybrid library CCNG1.

Assay [2] deals with T58, O9.
T58 chain: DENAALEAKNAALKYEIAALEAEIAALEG
Description: two-hybrid library CCNG1.

The next assay concerns the target T59, O8.
T59 chain: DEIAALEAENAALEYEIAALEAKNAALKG
Description: two-hybrid library CCNG1.

B1: 4H348-bH (peptide)
chain: DEIQELEKKIEELKRENWELKKENQELKR
As to B1, the interaction score with 4H40-bH was -0.14; with 4H477-bH, 0.107; with 4H741-bH it was 1.04; with 4H348-bH it was 0.666; in the assay with 4H492-bH, -0.683.

B2: O9 (peptide)
chain: ENAALEAKNAALKYEIAALEAEIAALEG
Take B2: the interaction score in the assay with O9 [1] is -2.72.

B3: P7 (peptide)
chain: SPEDEIQALEEKNAQLKQEIAALEEKNQALKYG
Take B3: the interaction score with P8mS was 0.223; in the assay with P9, -2.07; with P8, 0.391; with P7, -2.29; with P7mS, -2.52.

B4: 4H319-bH (peptide)
chain: DEIQELEKKIEELERKNWELKKKNQELER
For B4, the interaction score with 4H40-bH was -2.01; in the assay with 4H477-bH, -0.71; with 4H741-bH, 0.321; with 4H319-bH it was 1.04; with 4H3277-bH, -0.168; with 4H348-bH it was 0.143. Also, the interaction score with 4H492-bH is -0.172.

B5: 4H3297-bA (peptide)
chain: DKNAQLEQENAELKQKIAELEWEIAQLEQ
Turning to B5, the interaction score is -0.454 with 4H932-bA; -1.18 in the assay with 4H796-bA; -0.874 with 4H56-bA; -0.887 with 4H3364-bA; -0.992 with 4H730-bA; -0.995 in the assay with 4H3381-bA. The figures for the interaction score with 4H949-bA, with 4H3297-bA and in the assay with 4H349-bA were -0.949, 1.19 and -1.15, respectively.

B6: APC3645-AA (peptide)
chain: DKAAALKAELAAEEAENAALEAKNAALKG
For the molecule B6, the interaction score in the assay with APC7099-AA is -1.63; in the assay with APC4436-AA, -2.1; with APC6108-AA it was -1.68; with APC4264-AA, -1.56; in the assay with APC9096-AA, -1.71; with APC8910-AA it was -1.79. The interaction score is -1.55 with APC9319-AA; -1.51 with APC5383-AA; -1.34 with APC4011-AA; -1.12 with APC3645-AA; -1.7 in the assay with APC8191-AA.

B7: 4H338-bH (peptide)
chain: DEIQELEKKIEELKRENWELEKEIQELKR
Consider B7, for which the interaction score with 4H918-bH was -0.137; with 4H568-bH it was 0.785; with 4H754-bH, 0.366; in the assay with 4H3855-bH, 0.141; with 4H72-bH it was -1.44; with 4H454-bH, 1.38. For the same molecule, the interaction score was -0.321 with 4H3782-bH; 1.25 with 4H953-bH; 0.186 in the assay with 4H717-bH; -0.366 with 4H687-bH; 1.81 in the assay with 4H3926-bA; 1.76 in the assay with 4H338-bH. Further, the interaction score was 0.393 in the assay with 4H607-bH; -0.318 with 4H797-bH; 0.0489 with 4H883-bH; 0.908 with 4H967-bH; 0.346 in the assay with 4H4001-bH; 0.373 in the assay with 4H3427-bH. For the same molecule, the interaction score in the assay with 4H908-bH is -3.02.

B8: 4H348-bN (peptide)
chain: DEIQQLEQKIQELKQENQELKWENQELKQ
Turning to B8, the interaction score was -1 with 4H40-bN; -0.689 with 4H754-bH; -1.82 with 4H477-bN; -0.495 with 4H741-bN; 0.214 with 4H492-bN; -1.05 with 4H348-bN.

B9: O8 (peptide)
chain: DEIAALEAENAALEYEIAALEAKNAALKG
Take B9: the interaction score with O9 [2] was -1.9; in the assay with O8 it was -2.07.

Source of the values: paper PMC10397247.
